Test: Clearance experiments in mice, pharmacokinetic profiles
Settings: for pharmacokinetic behavior after modification by PEG versus non-modified enzyme / MRT / circulatory residence time (in words): mice; for MRT: mean residence time
Description: The pharmacokinetic profiles of non-modified and various preparations of PEG-modified AChE were resolved. Clearance experiments in mice (3 to 6 ICR male mice per enzyme sample) and analysis of pharmacokinetic profiles were carried out as described essentially previously [Kronman, C., et al. (1992), Gene 121, 295-304]. The study was approved by the local ethical committee on animal experiments. Mice were injected with the various rHuAChE preparations (40 μg/mouse in 0.2 ml PBS). Residual AChE activity in blood samples was measured and all values were corrected for background hydrolytic activity in the blood (using samples withdrawn 1 hour before performing the experiment). AChE activity values in samples removed immediately after injection were assigned a value of 100% and used for calculation of residual activity. […] This model enables determination of the parameters A and B which represent the fractions of the material removed from the circulation in the first-fast and second-slow elimination phases respectively, and T1/2α and T1/2β which represent the circulatory half-life values of the enzyme in the fast and slow phases. The pharmacokinetic parameters MRT (mean residence time, which reflects the average length of time the administered molecules are retained in the organism) and CL (clearance, which represents the proportionality factor relating the rate of substance elimination to its plasma concentration (CL=dose/area under the concentration-time curve), were independently obtained by analyzing the clearance data according to a noncompartmental pharmacokinetic model using the WinNonlin computer program. The comparative results are set forth in Table 3 below.

B1: PEG-modified sialidase-treated AChE (conjugate, UniProt P22303 32-614, looked up)
Acetylcholinesterase: EGREDAELLVTVRGGRLRGIRLKTPGGPVSAFLGIPFAEPPMGPRRFLPPEPKQPWSGVVDATTFQSVCYQYVDTLYPGFEGTEMWNPNRELSEDCLYLNVWTPYPRPTSPTPVLVWIYGGGFYSGASSLDVYDGRFLVQAERTVLVSMNYRVGAFGFLALPGSREAPGNVGLLDQRLALQWVQENVAAFGGDPTSVTLFGESAGAASVGMHLLSPPSRGLFHRAVLQSGAPNGPWATVGMGEARRRATQLAHLVGCPPGGTGGNDTELVACLRTRPAQVLVNHEWHVLPQESVFRFSFVPVVDGDFLSDTPEALINAGDFHGLQVLVGVVKDEGSYFLVYGAPGFSKDNESLISRAEFLAGVRVGVPQVSDLAAEAVVLHYTDWLHPEDPARLREALSDVVGDHNVVCPVAQLAGRLAAQGARVYAYVFEHRASTLSWPLWMGVPHGYEIEFIFGIPLDPSRNYTAEEKIFAQRLMRYWANFARTGDPNEPRDPKAPQWPPYTAGAQQYVSLDLRPLEVRRGLRAQACAFWNRFLPKLLSATDTLDEAERQWKAEFHRWSSYMVHWKNQFDHYSKQDRCSDL
modifications: PEG; sialidase-treated
For B1, the “pharmacokinetic behavior after modification by PEG versus non-modified enzyme” value was “significantly improved”.

B2: PEG-modified fully sialylated AChE (conjugate, UniProt P22303 32-614, looked up)
Acetylcholinesterase: B1 Acetylcholinesterase
modifications: PEG; fully sialylated
In the case of B2, the “pharmacokinetic behavior after modification by PEG versus non-modified enzyme” value is reported as “significantly improved”.

B3: PEG-modified mono-glycosylated AChE (conjugate, UniProt P22303 32-614, looked up)
Acetylcholinesterase: B1 Acetylcholinesterase
modifications: PEG; mono-glycosylated
For B3, the “pharmacokinetic behavior after modification by PEG versus non-modified enzyme” value was “significantly improved”.

B4: PEG-modified non-glycosylated AChE (conjugate, UniProt P22303 32-614, looked up)
Acetylcholinesterase: B1 Acetylcholinesterase
modifications: PEG; non-glycosylated
With B4 the “pharmacokinetic behavior after modification by PEG versus non-modified enzyme” value was “significantly improved”.

B5: AChE-PEG-5000 high ratio (conjugate, UniProt P22303 32-614, looked up)
Acetylcholinesterase: B1 Acetylcholinesterase
modifications: PEG-5000, high ratio
In the case of B5, the “T1/2[…]” value (circulatory half-life, fast phase, ICR mice, 40 μg/mouse) is reported as 0.467 ± 0.083 h, the T1/2β (circulatory half-life, slow phase, ICR mice, 40 μg/mouse) is reported as 9 ± 1.17 h and the “A (% of total)” value (fraction removed in first-fast elimination phase, ICR mice, 40 μg/mouse) is reported as 46 ± 3 % of total. For the same molecule, the “B (% of total)” value (fraction removed in second-slow elimination phase, ICR mice, 40 μg/mouse) was 64 ± 3 % of total, the MRT (noncompartmental model) was 12.3 ± 1.33 h and the Clearance (noncompartmental model, ICR mice, 40 μg/mouse) was 0.22 mL/min/kg.

B6: FBS-AChE (protein, UniProt P23795 31-613, looked up)
Acetylcholinesterase: EGPEDPELLVMVRGGRLRGLRLMAPRGPVSAFLGIPFAEPPVGPRRFLPPEPKRPWPGVLNATAFQSVCYQYVDTLYPGFEGTEMWNPNRELSEDCLYLNVWTPYPRPSSPTPVLVWIYGGGFYSGASSLDVYDGRFLTQAEGTVLVSMNYRVGAFGFLALPGSREAPGNVGLLDQRLALQWVQENVAAFGGDPTSVTLFGESAGAASVGMHLLSPPSRGLFHRAVLQSGAPNGPWATVGVGEARRRATLLARLVGCPPGGAGGNDTELVACLRARPAQDLVDHEWRVLPQESVFRFSFVPVVDGDFLSDTPEALINAGDFHGLQVLVGVVKDEGSYFLVYGAPGFSKDNESLISRAQFLAGVRVGVPQASDLAAEAVVLHYTDWLHPEDPARLREALSDVVGDHNVVCPVAQLAGRLAAQGARVYAYIFEHRASTLSWPLWMGVPHGYEIEFIFGLPLEPSLNYTIEERTFAQRLMRYWANFARTGDPNDPRDPKAPQWPPYTAGAQQYVSLNLRPLEVRRGLRAQACAFWNRFLPKLLSATDTLDEAERQWKAEFHRWSSYMVHWKNQFDHYSKQDRCSDL
Molecule B6 has an MRT (noncompartmental model) of 22.33 h.

B7: PEG modified FBS-AChE (conjugate, UniProt P23795 31-613, looked up)
Acetylcholinesterase: B6 Acetylcholinesterase
modifications: PEG
With B7 the “pharmacokinetic behavior after modification by PEG versus non-modified enzyme” value was “significantly improved”.

B8: partially desialylated BChE (protein, UniProt P06276 29-602, looked up)
Cholinesterase: EDDIIIATKNGKVRGMNLTVFGGTVTAFLGIPYAQPPLGRLRFKKPQSLTKWSDIWNATKYANSCCQNIDQSFPGFHGSEMWNPNTDLSEDCLYLNVWIPAPKPKNATVLIWIYGGGFQTGTSSLHVYDGKFLARVERVIVVSMNYRVGALGFLALPGNPEAPGNMGLFDQQLALQWVQKNIAAFGGNPKSVTLFGESAGAASVSLHLLSPGSHSLFTRAILQSGSFNAPWAVTSLYEARNRTLNLAKLTGCSRENETEIIKCLRNKDPQEILLNEAFVVPYGTPLSVNFGPTVDGDFLTDMPDILLELGQFKKTQILVGVNKDEGTAFLVYGAPGFSKDNNSIITRKEFQEGLKIFFPGVSEFGKESILFHYTDWVDDQRPENYREALGDVVGDYNFICPALEFTKKFSEWGNNAFFYYFEHRSSKLPWPEWMGVMHGYEIEFVFGLPLERRDNYTKAEEILSRSIVKRWANFAKYGNPNETQNNSTSWPVFKSTEQKYLTLNTESTRIMTKLRAQQCRFWTSFFPKVLEMTGNIDEAEWEWKAGFHRWNNYMMDWKNQFNDYTSKKESCVGL
modifications: partially desialylated
With B8 the MRT (noncompartmental model) was 2.67 h.

B9: non-treated serum-derived BChE (protein, UniProt P06276 29-602, looked up)
Cholinesterase: B8 Cholinesterase
In the case of B9, the “circulatory residence time (in words)” value is reported as “resides in the circulation for extended periods of time”.

B10: PEGylated BChE (partially sialylated) (conjugate, UniProt P06276 29-602, looked up)
Cholinesterase: B8 Cholinesterase
modifications: PEG; partially sialylated
In the case of B10, the “circulatory residence time (in words)” value is reported as “significantly increased”.

Reference: patent US7572764B2, “Uses of chemically-modified cholinesterases for detoxification of organophosporus compounds” (priority 2001, dated 2009)
